No end group written: not given here.
Legend:
[1] = target: T1, tetratricopeptide repeat (TPR) domain of S. cerevisiae PEX5 (Gal4pBD-TPR, plasmid pAH987) (S. cerevisiae); assay: two-hybrid; yeast strain PCY3 co-transformed with Gal4pAD-16mer (pGAD.GH) and Gal4pBD-TPR of PEX5 (pAH987 yeast or hP87 human); quantitative beta-galactosidase activity, cells grown in SC-leu-trp at 30°C; lower limit of around 10 Miller Units per mg protein for a productive interaction
T1 sequence (P35056 whole entry, looked up): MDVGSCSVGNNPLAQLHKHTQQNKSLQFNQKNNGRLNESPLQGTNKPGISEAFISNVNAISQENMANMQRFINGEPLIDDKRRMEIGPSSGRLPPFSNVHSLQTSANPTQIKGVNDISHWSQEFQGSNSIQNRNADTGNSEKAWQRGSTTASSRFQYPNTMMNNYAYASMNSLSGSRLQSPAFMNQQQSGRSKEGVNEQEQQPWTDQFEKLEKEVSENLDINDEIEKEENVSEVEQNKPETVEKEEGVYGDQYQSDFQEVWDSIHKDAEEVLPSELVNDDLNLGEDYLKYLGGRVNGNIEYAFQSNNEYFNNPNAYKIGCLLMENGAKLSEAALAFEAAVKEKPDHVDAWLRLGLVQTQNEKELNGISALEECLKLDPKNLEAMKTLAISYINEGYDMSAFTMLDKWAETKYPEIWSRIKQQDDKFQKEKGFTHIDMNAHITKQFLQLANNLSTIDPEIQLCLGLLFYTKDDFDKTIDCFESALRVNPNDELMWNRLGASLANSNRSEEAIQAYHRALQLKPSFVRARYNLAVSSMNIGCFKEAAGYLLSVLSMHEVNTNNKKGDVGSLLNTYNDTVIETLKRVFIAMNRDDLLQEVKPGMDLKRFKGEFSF

[2] = target: tetratricopeptide repeat (TPR) domain of human PEX5 (Gal4pBD-TPR, plasmid hP87) (Homo sapiens); assay: as above

Molecule: carboxy-terminal 16-mer of yeast mitochondrial ribosomal protein L2, or MRP7 (Gal4pAD-16mer) (peptide)
- beta-galactosidase activity (Units/mg protein) [1]: 482

B1: carboxy-terminal 16-mer of hen egg-white lysozyme (Gal4pAD-16mer) (peptide)
chain: RCKGTDVQAWIRGCRL
- beta-galactosidase activity (Units/mg protein) [2]: 73

B2: carboxy-terminal 16-mer of human tyrosinase (Gal4pAD-16mer) (peptide)
chain: LLMEKEDYHSLYQSHL
- beta-galactosidase activity (Units/mg protein) [2]: 242

B3: carboxy-terminal 16-mer of E. coli transaldolase A (Gal4pAD-16mer) (peptide)
chain: FAVDQRKLEDLLAAKL
- beta-galactosidase activity (Units/mg protein) [2]: 566
- beta-galactosidase activity (Units/mg protein) [1]: 164

B4: carboxy-terminal 16-mer of Archaeoglobus fulgidus 2-nitropropane dioxygenase (Gal4pAD-16mer) (peptide)
chain: EEVIRKIAEGLNKAKF
modifications: not fully specified (N-terminus)
- beta-galactosidase activity (Units/mg protein) [1]: 206

B5: carboxy-terminal 16-mer of dog lysozyme C from milk (Gal4pAD-16mer) (peptide)
chain: HCKGKDLSKYLASCNL
- beta-galactosidase activity (Units/mg protein) [2]: 25

B6: carboxy-terminal 16-mer of the precursor of lysosomal bovine cathepsin D (Gal4pAD-16mer) (peptide)
chain: FDRDQNRVGLAEAARL
modifications: not fully specified (N-terminus)
- beta-galactosidase activity (Units/mg protein) [2]: 310

B7: carboxy-terminal 16-mer of Drosophila sevenless protein (Gal4pAD-16mer) (peptide)
chain: PLKDKQLYANEGVSRL
modifications: not fully specified (N-terminus)
- beta-galactosidase activity (Units/mg protein) [2]: 29

B8: carboxy-terminal 16-mer of frog tyrosinase (Gal4pAD-16mer) (peptide)
chain: LLMEAEDYQATYQSNL
- beta-galactosidase activity (Units/mg protein) [2]: 91

B9: carboxy-terminal 16 residues of the DHFR-SKL construct (Gal4pAD-16mer) (peptide)
chain: EKGIKYKFEVYEKSKL
- beta-galactosidase activity (Units/mg protein) [1]: 195

B10: carboxy-terminal 16-mer of Methanopyrus kandleri riboflavin synthase (Gal4pAD-16mer) (peptide)
chain: GMGRREGHPDVGPARL
- beta-galactosidase activity (Units/mg protein) [2]: 358
- beta-galactosidase activity (Units/mg protein) [1]: 45

B11: carboxy-terminal 16-mer of Escherichia coli glutamate-1-semialdehyde 2,1-aminomutase (Gal4pAD-16mer) (peptide)
chain: DINNTIDAARRVFAKL
modifications: not fully specified (N-terminus)
- beta-galactosidase activity (Units/mg protein) [2]: 473
- beta-galactosidase activity (Units/mg protein) [1]: 270
